# Laboratory results from patent publication US9951356B2, “Processes to prepare elongated 2-ketoacids and C6-C10 compounds therefrom via genetic modifications to microbial metabolic pathways” (Dow Global Technologies LLC, priority 2013, dated 2018).
# Substitutions are numbered along the chain they refer to. Numbers in names are those of the source.
# B1: L96A: E. coli isopropylmalate dehydrogenase (LeuB) with Leu-96 replaced with alanine (protein, UniProt P30125 2-363, looked up, variant L96A)
# 3-isopropylmalate …: SKNYHIAVLPGDGIGPEVMTQALKVLDAVRNRFAMRITTSHYDVGGAAIDNHGQPLPPATVEGCEQADAVLFGSVGGPKWEHLPPDQQPERGALAPLRKHFKLFSNLRPAKLYQGLEAFCPLRADIAANGFDILCVRELTGGIYFGQPKGREGSGQYEKAFDTEVYHRFEIERIARIAFESARKRRHKVTSIDKANVLQSSILWREIVNEIATEYPDVELAHMYIDNATMQLIKDPSQFDVLLCSNLFGDILSDECAMITGSMGMLPSASLNEQGFGLYEPAGGSAPDIAGKNIANPIAQILSLALLLRYSLDADDAACAIERAINRALEEGIRTGDLARGAAAVSTDEMGDIIARYVAEGV
# B2: L96G/V198G: E. coli LeuB variant with Leu-96 and Val-198 both replaced with glycine (protein, UniProt P30125 2-363, looked up, variant L96G V198G)
# 3-isopropylmalate …: B1 3-isopropylmalate … with A95G, V197G
# B3: L96A/V198A: E. coli LeuB variant with Leu-96 and Val-198 both replaced with alanine (protein, UniProt P30125 2-363, looked up, variant L96A V198A)
# 3-isopropylmalate …: B1 3-isopropylmalate … with V197A
# B4: L96G: E. coli LeuB variant with Leu-96 replaced with glycine (protein, UniProt P30125 2-363, looked up, variant L96G)
# 3-isopropylmalate …: B1 3-isopropylmalate … with A95G
# B5: V198A: E. coli LeuB variant with Val-198 replaced with alanine (protein, UniProt P30125 2-363, looked up, variant V198A)
# 3-isopropylmalate …: B1 3-isopropylmalate … with A95L, V197A
# B6: V198G: E. coli LeuB variant with Val-198 replaced with glycine (protein, UniProt P30125 2-363, looked up, variant V198G)
# 3-isopropylmalate …: B1 3-isopropylmalate … with A95L, V197G
# B7: L96G/V198A: E. coli LeuB variant with Leu-96 replaced with glycine and Val-198 with alanine (protein, UniProt P30125 2-363, looked up, variant L96G V198A)
# 3-isopropylmalate …: B1 3-isopropylmalate … with A95G, V197A
# B8: Wild type LeuB: native E. coli LeuB (isopropylmalate dehydrogenase), SEQ ID 2, histidine-tagged (protein, UniProt P30125 2-363, looked up)
# 3-isopropylmalate …: B1 3-isopropylmalate … with A95L
# B9: L96V: E. coli LeuB variant with Leu-96 replaced with valine (protein, UniProt P30125 2-363, looked up, variant L96V)
# 3-isopropylmalate …: B1 3-isopropylmalate … with A95V
# B10: L96V/V198G: E. coli LeuB variant with Leu-96 replaced with valine and Val-198 with glycine (protein, UniProt P30125 2-363, looked up, variant L96V V198G)
# 3-isopropylmalate …: B1 3-isopropylmalate … with A95V, V197G
# Test: HTP screening assay of LeuB variants, 3-HM
# Type: biochemical
# Settings: 1 mM 3-HM, 2 mM NAD+, pH 8.0, 25° C.; mean of duplicates
# Experimental: (§1) The evaluation of the LeuB variants is performed in two steps using the high-throughput enzyme assay described below. Initially, all of the variants are screened for activity against a single high concentration of 3-IPM, 3-BM and 3-HM. Following the initial evaluation, detailed kinetic analysis is performed on a select number of variants to determine the maximal rate (kcat), Michaelis-Menten constant (KM), and the catalytic efficiency of the variant enzymes (kcat/KM).
# (§2) A suitable spectrophotometric LeuB enzyme assay is adapted into a high-throughput format in 96-well plates for the kinetic evaluation of LeuB and its variants (shown in Table 1) against 3-isopropylmalate (3-IPM), 3-butylmalate (3-BM), and 3-hexylmalate (3-HM). See, for example, Hsu, Y.; Kohlhaw, G. B. “Leucine biosynthesis in Saccharomyces cerevisiae. Purification and characterization of beta-isopropylmalate dehydrogenase,” J. Biol. Chem., 1980, 255:7255-7260. Steady state kinetic parameters (kcat, KM and kcat/KM) for the oxidative decarboxylation of the three substrates by the variants are determined in these experiments.
# (§3) The HTP screening assay involves incubating 750 micromoles (μM) of 3-IPM, 1 mM 3-BM or 1 mM 3-HM, with 2 mM nicotinamide adenine dinucleotide (NAD^+) in LeuB assay buffer (50 mM 4-(2-hydroxyethyl) piperazine-1-ethanesulfonic acid (HEPES), pH 8.0, containing 30 mM potassium chloride (KCl) and 5 mM magnesium chloride (MgCl2)) at 25° C. The reaction is started by the addition at 25° C. of working enzyme stock containing from 0.3 microgram (μg) to 1.1 μg of LeuB variant diluted in assay buffer containing 1 mM DTT and 1 milligram per milliliter (mg/mL) bovine serum albumin (BSA). The plate containing the 200 μL of reaction mixture is centrifuged at 2500×g for 15 seconds (sec) and the absorbance change of the reaction mixture is followed spectrophotometrically at 340 nm on a BioTek™ plate reader, pre-equilibrated at 25° C. Initial velocity of the enzyme reaction is calculated from the rate of NADH production at 340 nm and using the extinction coefficient of NADH (6.22 per millimolar per centimeter (mM^−1cm^−1)). The activity of all the variants is normalized with the amount of enzyme present in the reaction mixture and expressed as nanomoles per minute per microgram (nmol·min^−1·μg^−1) (Table 2). Protein concentrations for normalizing the activities are determined using the 660 nm total protein assay kit acquired from Pierce Biotechnology Inc.™, available from Thermo Fisher Scientific, Inc., and using BSA as the standard.
row,Molecule,"Specific activity, 3-HM"
1,B1,0.77 nmol/min/µg
2,B2,3.6 nmol/min/µg
3,B3,3.3 nmol/min/µg
4,B4,9.5 nmol/min/µg
5,B5,2.5 nmol/min/µg
6,B6,0.5 nmol/min/µg
7,B7,20.4 nmol/min/µg
8,B8,0.68 nmol/min/µg

# Same assay, conditions: screening at single high concentration
row,Molecule,activity against 3-HM compared with the wild type enzyme
1,B1,higher activity than the wild type enzyme
2,B2,higher activity than the wild type enzyme
3,B3,higher activity than the wild type enzyme
4,B4,higher activity than the wild type enzyme
5,B5,higher activity than the wild type enzyme
6,B7,higher activity than the wild type enzyme

# Test: HTP screening assay of LeuB variants, 3-IPM
# Type: biochemical
# Settings: 750 μM 3-IPM, 2 mM NAD+, pH 8.0, 25° C.; mean of duplicates
# Experimental: as §1, §2, §3
row,Molecule,"Specific activity, 3-IPM"
1,B1,15.4 nmol/min/µg
2,B2,0.02 nmol/min/µg
3,B9,1.53 nmol/min/µg
4,B3,0.65 nmol/min/µg
5,B4,2.90 nmol/min/µg
6,B5,2.83 nmol/min/µg
7,B6,4.66 nmol/min/µg
8,B10,0.05 nmol/min/µg
9,B8,18.3 nmol/min/µg

# Test: HTP LeuB kinetic assay, oxidative decarboxylation of 3-IPM
# Type: biochemical
# Settings: higher for 3-IPM than for 3-HM
# Experimental: as §1, §2
# (§4) The HTP kinetic assay involves incubating eight varied concentrations, of 3-IPM (from 0 to 1.2 mM) or 3-BM (from 0 to 2 mM) or 3-HM (from 0 to 2 mM), with 2 mM NAD^+ in LeuB assay buffer (50 mM HEPES, pH 8.0, containing 30 mM KCl and 5 mM MgCl2) at 25° C. The reaction is started by adding from 0.008 μg to 0.5 μg of LeuB variant which has been pre-diluted in assay buffer containing 1 mM DTT and 1 mg/mL BSA. The plate containing the 200 μl of reaction mixture is centrifuged at 2500×g for 15 sec and the absorbance change is followed spectrophotometrically at 340 nm on a BioTek™ plate reader maintained at 25° C. Initial velocity of the enzyme reaction is calculated from the rate of NADH production at 340 nm and using the extinction coefficient of NADH (6.22 mM^−1cm^−1). The kinetic parameters (kcat, KM and kcat/KM) of oxidative decarboxylation of 3-alkylmalate are determined by fitting the data to the Michaelis-Menten equation using nonlinear regression performed using the GraphPad Prism™ software. Table 3 lists the kinetic parameters of the wild type and engineered variants against the three substrates. The amount of enzyme in the reaction mixture is determined using the 660 nm total protein assay kit acquired from Pierce Biotechnology Inc.™, using BSA as the standard.
row,Molecule,catalytic efficiency for 3-IPM relative to that for 3-HM
1,B8,"1,000 fold"

# Same assay, conditions: less efficient than wild type LeuB
row,Molecule,decrease in efficiency of capturing 3-IPM compared with the wild type enzyme
1,B1,approximately 4 fold
2,B4,100 fold
3,B5,"1,000 fold"

# Same assay, conditions: substrate 3-IPM; mean ± S.D.
Molecule,Km,kcat
B1,16 ± 10 µM,11.1 ± 2.57 s⁻¹
B8,9 ± 3 µM,23.92 ± 2.02 s⁻¹

# Test: HTP screening assay of LeuB variants, 3-BM
# Type: biochemical
# Settings: 1 mM 3-BM, 2 mM NAD+, pH 8.0, 25° C.; mean of duplicates
# Experimental: as §1, §2, §3
row,Molecule,"Specific activity, 3-BM"
1,B1,9.48 nmol/min/µg
2,B2,0.08 nmol/min/µg
3,B3,1.26 nmol/min/µg
4,B4,1.5 nmol/min/µg
5,B5,1.81 nmol/min/µg
6,B6,1.83 nmol/min/µg
7,B10,0.04 nmol/min/µg
8,B7,1.49 nmol/min/µg
9,B8,4.3 nmol/min/µg

# Test: HTP LeuB kinetic assay, oxidative decarboxylation of 3-BM
# Type: biochemical
# Settings: in words
# Experimental: as §1, §2, §4
row,Molecule,efficiency of capturing 3-BM compared with the wild type enzyme
1,B1,modestly poor

# Same assay, conditions: substrate 3-BM; mean ± S.D.
Molecule,Km,kcat
B1,130 ± 20 µM,7 ± 0.367 s⁻¹
B4,1900 ± 200 µM,3.12 ± 0.1 s⁻¹
B7,3300 ± 400 µM,4.47 ± 0.35 s⁻¹
B8,38 ± 13 µM,3.65 ± 0.333 s⁻¹

# Test: HTP LeuB kinetic assay, oxidative decarboxylation of 3-HM
# Type: biochemical
# Settings: more efficient than wild type LeuB
# Experimental: as §1, §2, §4
row,Molecule,increase in efficiency of capturing 3-HM compared with the wild type enzyme
1,B3,12 fold
2,B4,80 fold
3,B5,5 fold
4,B7,102 fold

# Same assay, conditions: substrate 3-HM; mean ± S.D.
Molecule,Km,kcat
B1,240 ± 40 µM,0.683 ± 0.0083 s⁻¹
B3,80 ± 10 µM,2.65 ± 0.067 s⁻¹
B4,30 ± 3 µM,7.58 ± 0.167 s⁻¹
B5,110 ± 10 µM,1.62 ± 0.55 s⁻¹
B7,50 ± 0.5 µM,14.6 ± 0.383 s⁻¹
B8,160 ± 20 µM,0.433 ± 0.033 s⁻¹
